Results reported in patent US20250186620A1 (DUKE UNIVERSITY, published 2025).

Target: T1, human connexin45 (Cx45) (human, UniProt P36383 1-396)
T1 construct: whole, on cells; Hemichannel expressed in HEK 293FT cells for FETCH; non-docking benchmark partner of Cx36; also called GJC1; not shown: C-terminal fluorescent protein fusion (mEmerald or RFP670 in FETCH)
Assay: FETCH (flow cytometry of co-plated HEK 293FT cells), benchmark pair
Protocol: Complete FETCH methodology is outlined in Ransey et. al. 2021 (Ransey E, et al. (2021) BioRxiv). Briefly, replica multi-well plates with HEK 293FT cells were transfected with either of the two connexin proteins being evaluated for docking. Following a transfection incubation period, experimental counterparts were combined, replated, and further incubated for about 20 hr to about 24 hrs, allowing cells to make contacts and potentially generate connexosomes. Co-plated samples were trypsinized, fixed in suspension and analyzed via flow cytometry. Flow cytometry data was processed with two selection gates prior to their fluorescence evaluation. First, putative HEK cells were identified by evaluating sample forward vs. side scatter area. Next, single cells were identified as the putative cells that maintained a linear correlation of forward scatter height to forward scatter area. Finally, the dual fluorescence (mEmerald vs. RFP670) profiles of each sample was generated, and the FETCH score was defined as the proportion of dual-labeled fluorescent cells that develop in a co-plated sample.
For screening analysis, five FETCH replicates were obtained for each condition (mutation). […] To quantitatively determine whether a connexin pair docked, FETCH scores were determined for the dual fluorescence of cells under conditions where docking was not anticipated. […]

T1 sequence (P36383 whole entry, the tested form may be a part): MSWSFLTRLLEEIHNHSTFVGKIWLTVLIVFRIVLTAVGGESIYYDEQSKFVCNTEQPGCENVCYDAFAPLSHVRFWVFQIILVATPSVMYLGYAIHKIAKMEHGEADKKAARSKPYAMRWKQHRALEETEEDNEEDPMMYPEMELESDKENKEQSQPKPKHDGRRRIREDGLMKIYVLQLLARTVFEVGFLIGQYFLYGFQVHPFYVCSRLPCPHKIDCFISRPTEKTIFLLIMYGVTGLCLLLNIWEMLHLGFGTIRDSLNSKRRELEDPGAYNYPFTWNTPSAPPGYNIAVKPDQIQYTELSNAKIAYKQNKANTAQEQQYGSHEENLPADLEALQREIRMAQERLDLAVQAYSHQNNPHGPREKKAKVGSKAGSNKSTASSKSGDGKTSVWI

B1: human connexin36 (Cx36) (other, UniProt Q9UKL4 1-321, looked up)
chain: MGEWTILERLLEAAVQQHSTMIGRILLTVVVIFRILIVAIVGETVYDDEQTMFVCNTLQPGCNQACYDRAFPISHIRYWVFQIIMVCTPSLCFITYSVHQSAKQRERRYSTVFLALDRDPPESIGGPGGTGGGGSGGGKREDKKLQNAIVNGVLQNTENTSKETEPDCLEVKELTPHPSGLRTASKSKLRRQEGISRFYIIQVVFRNALEIGFLVGQYFLYGFSVPGLYECNRYPCIKEVECYVSRPTEKTVFLVFMFAVSGICVVLNLAELNHLGWRKIKLAVRGAQAKRKSIYEIRNKDLPRVSVPNFGRTQSSDSAYV
notes: whole, on cells; Hemichannel expressed in HEK 293FT cells for FETCH; also called GJD2; not shown: C-terminal fluorescent protein fusion (mEmerald or RFP670 in FETCH)
- binding result: no binding
